Measured values as given in article PMC7785629.
Numbering of substitutions follows the chain as printed. Names and notes keep the numbering of the source.

Assays:
purified protein = substrate: Nc1ncnc2c1ncn2[C@@H]1O[C@H](COP(=O)(O)OP(=O)(O)OP(=O)(O)O)[C@@H](O)[C@H]1O; assay: purified protein; assay type: biochemical, Homo sapiens; details: Mg2+ nucleotide binding domain
[1] = substrate: Nc1ncnc2c1ncn2[C@@H]1O[C@H](COP(=O)(O)OP(=O)(O)OP(=O)(O)O)[C@@H](O)[C@H]1O; assay: Michaelis-Menten ATPase kinetics; assay type: biochemical, Homo sapiens; details: Mg2+ nucleotide binding domain

B1: ABCB7 (Homo sapiens) (protein)
chain: HSAILIRPLVSVSGSGPQWRPHQLGALGTARAYQIPESLKSITWQRLGKGNSGQFLDAAKALQVWPLIEKRTCWHGHAGGGLHTDPKEGLKDVDTRKIIKAMLSYVWPKDRPDLRARVAISLGFLGGAKAMNIVVPFMFKYAVDSLNQMSGNMLNLSDAPNTVATMATAVLIGYGVSRAGAAFFNEVRNAVFGKVAQNSIRRIAKNVFLHLHNLDLGFHLSRQTGALSKAIDRGTRGISFVLSALVFNLLPIMFEVMLVSGVLYYKCGAQFALVTLGTLGTYTAFTVAVTRWRTRFRIEMNKADNDAGNAAIDSLLNYETVKYFNNERYEAQRYDGFLKTYETASLKSTSTLAMLNFGQSAIFSVGLTAIMVLASQGIVAGTLTVGDLVMVNGLLFQLSLPLNFLGTVYRETRQALIDMNTLFTLLKVDTQIKDKVMASPLQITPQTATVAFDNVHFEYIEGQKVLSGISFEVPAGKKVAIVGGSGSGKSTIVRLLFRFYEPQKGSIYLAGQNIQDVSLESLRRAVGVVPQDAVLFHNTIYYNLLYGNISASPEEVYAVAKLAGLHDAILRMPHGYDTQVGERGLKLSGGEKQRVAIARAILKDPPVILYDEATSSLDSITEETILGAMKDVVKHRTSIFIAHRLSTVVDADEIIVLDQGKVAERGTHHGLLANPHSIYSEMWHTQSSRVQNHDNPKWEAKKENISKEEERKKLQEEIVNSVKGCGNCSC
Km (purified protein): 5.3 ± 1.0 mM | Vmax (purified protein): 0.58 µM/min

B2: ABCB7 (Homo sapiens; E433D) (protein)
chain: B1 chain with E411D
Km [1]: 0.85 ± 0.28 mM | Vmax [1]: 0.35 µM/min

B3: ABCB7 (Homo sapiens; E433K) (protein)
chain: B1 chain with E411K
Km [1]: 0.49 ± 0.11 mM | Vmax [1]: 0.37 µM/min

B4: ABCB7 (Homo sapiens; E433Q) (protein)
chain: B1 chain with E411Q
Km [1]: 0.71 ± 0.30 mM | Vmax [1]: 0.28 µM/min
